Measured values: article PMC6200392

Legend:
[1] = molecular target: PRC1 (unlabeled, full-length) (human) (UniProt O43663)
[2] = molecular target: PRC1 N-terminus (Homo sapiens) (UniProt O43663); conditions: cited from earlier work

| relative sliding of PRC1-crosslinked antiparallel microtubules, average phase-1 sliding velocity; 0.2 and 1 nM PRC1 at 6 nM Kif4A-GFP [1] [×10⁻⁶ cm/s] | Substance | Kd [2] [nM] |
| --- | --- | --- |
| 4.6 | Kif4A-GFP (from UniProt O95239 1-1232) (natural protein) | – |
| – | Kif4A C-terminus (from UniProt O95239) | 300 |
